Laboratory results reported in patent US11555213B2, “Nucleic acid encoding a modified homoserine dehydrogenase” (CJ CHEILJEDANG CORPORATION, priority 2018, dated 2023).

B1: T285I: Hom (SEQ ID NO: 10), threonine at position 285 mutated to isoleucine (protein)
chain: MTSASAPSFNPGKGPGSAVGIALLGFGTVGTEVMRLMTEYGDELAHRIGGPLEVRGIAVSDISKPREGVAPELLTEDAFALIEREDVDIVVEVIGGIEYPREVVLAALKAGKSVVTANKALVAAHSAELADAAEAANVDLYFEAAVAGAIPVVGPLRRSLAGDQIQSVMGIVNGTTNFILDAMDSTGADYADSLAEATRLGYAEADPTADVEGHDAASKAAILASIAFHTRVTADDVYCEGISNISAADIEAAQQAGHTIKLLAICEKFTNKEGKSAISARVHPILLPVSHPLASVNKSFNAIFVEAEAAGRLMFYGNGAGGAPTASAVLGDVVGAARNKVHGGRAPGESTYANLPIADFGETTTRYHLDMDVEDRVGVLAELASLFSEQGISLRTIRQEERDDDARLIVVTHSALESDLSRTVELLKAKPVVKAINSVIRLERD
modifications: Hom (KFCC10881-1)
B2: G378W: Hom (SEQ ID NO: 12), glycine at position 378 mutated to tryptophan (protein)
chain: MTSASAPSFNPGKGPGSAVGIALLGFGTVGTEVMRLMTEYGDELAHRIGGPLEVRGIAVSDISKPREGVAPELLTEDAFALIEREDVDIVVEVIGGIEYPREVVLAALKAGKSVVTANKALVAAHSAELADAAEAANVDLYFEAAVAGAIPVVGPLRRSLAGDQIQSVMGIVNGTTNFILDAMDSTGADYADSLAEATRLGYAEADPTADVEGHDAASKAAILASIAFHTRVTADDVYCEGISNISAADIEAAQQAGHTIKLLAICEKFTNKEGKSAISARVHPTLLPVSHPLASVNKSFNAIFVEAEAAGRLMFYGNGAGGAPTASAVLGDVVGAARNKVHGGRAPGESTYANLPIADFGETTTRYHLDMDVEDRVWVLAELASLFSEQGISLRTIRQEERDDDARLIVVTHSALESDLSRTVELLKAKPVVKAINSVIRLERD
modifications: Hom (KFCC10881-19)
B3: G378S: Hom (SEQ ID NO: 13), glycine at position 378 mutated to serine (protein)
chain: MTSASAPSFNPGKGPGSAVGIALLGFGTVGTEVMRLMTEYGDELAHRIGGPLEVRGIAVSDISKPREGVAPELLTEDAFALIEREDVDIVVEVIGGIEYPREVVLAALKAGKSVVTANKALVAAHSAELADAAEAANVDLYFEAAVAGAIPVVGPLRRSLAGDQIQSVMGIVNGTTNFILDAMDSTGADYADSLAEATRLGYAEADPTADVEGHDAASKAAILASIAFHTRVTADDVYCEGISNISAADIEAAQQAGHTIKLLAICEKFTNKEGKSAISARVHPTLLPVSHPLASVNKSFNAIFVEAEAAGRLMFYGNGAGGAPTASAVLGDVVGAARNKVHGGRAPGESTYANLPIADFGETTTRYHLDMDVEDRVSVLAELASLFSEQGISLRTIRQEERDDDARLIVVTHSALESDLSRTVELLKAKPVVKAINSVIRLERD
modifications: Hom (KFCC10881-22)
B4: R398Q: Hom (SEQ ID NO: 11), arginine at position 398 mutated to glutamine (protein)
chain: MTSASAPSFNPGKGPGSAVGIALLGFGTVGTEVMRLMTEYGDELAHRIGGPLEVRGIAVSDISKPREGVAPELLTEDAFALIEREDVDIVVEVIGGIEYPREVVLAALKAGKSVVTANKALVAAHSAELADAAEAANVDLYFEAAVAGAIPVVGPLRRSLAGDQIQSVMGIVNGTTNFILDAMDSTGADYADSLAEATRLGYAEADPTADVEGHDAASKAAILASIAFHTRVTADDVYCEGISNISAADIEAAQQAGHTIKLLAICEKFTNKEGKSAISARVHPTLLPVSHPLASVNKSFNAIFVEAEAAGRLMFYGNGAGGAPTASAVLGDVVGAARNKVHGGRAPGESTYANLPIADFGETTTRYHLDMDVEDRVGVLAELASLFSEQGISLRTIQQEERDDDARLIVVTHSALESDLSRTVELLKAKPVVKAINSVIRLERD
modifications: Hom (KFCC10881-14)

Tested on: homoserine dehydrogenase (Hom)
Experiment: Measurement of activity of homoserine dehydrogenase in crude extracts, desensitization by L-threonine
Format: biochemical, Corynebacterium glutamicum
Conditions: 10 mM L-threonine, unlike the wild-type Hom
Procedure: The activity of the enzyme Hom was measured in the prepared strains. The wild-type strain ATCC13032 in a control group and CTR-T285I, CTR-R398Q, CTR-G378W, and CTR-G378S prepared in Example 4 were inoculated into 25 mL of the seed medium, and then cultured until reaching the late log phase. The cells were recovered by centrifugation, washed twice with a 0.1 M potassium phosphate buffer (pH 7.6), and finally suspended in 2 mL of the same buffer containing glycerol at a concentration of 30%. The cell suspension was physically disrupted by a conventional glass bead vortexing method for 10 minutes, and then the supernatant was recovered through two centrifugations (13,000 rpm, 4° C., 30 minutes) and used as a crude extract for measuring the activity of the enzyme Hom. For the measurement of the activity of Hom, a coenzyme solution (0.1 mL) was added to a reaction solution for measuring the enzyme activity (a potassium phosphate (pH 7.0) buffer, 25 mM NADPH, 5 mM aspartate semi-aldehyde), and then reacted at 30° C. The Hom activity U was defined as the number of NADPH μmol consumed per minute according to the presence of L-threonine (0 mM, 10 mM), and the results of the enzyme activity are shown in Table 2 below.

| Molecule | inhibition of Hom activity by L-threonine (desensitization) |
| --- | --- |
| B1 | inhibition of the activity was reduced |
| B2 | inhibition of the activity was reduced |
| B3 | inhibition of the activity was reduced |
| B4 | inhibition of the activity was reduced |
